In IntAct's records for PubMed 19762560:

B1: Synphilin-1 (Homo sapiens), Q9Y6H5 (parent)
chain: MEAPEYLDLDEIDFSDDISYSVTSLKTIPELCRRCDTQNEDRSVSSSSWNCGISTLITNTQKPTGIADVYSKFRPVKRVSPLKHQPETLENNESDDQKNQKVVEYQKGGESDLGPQPQELGPGDGVGGPPGKSSEPSTSLGELEHYDLDMDEILDVPYIKSSQQLASFTKVTSEKRILGLCTTINGLSGKACSTGSSESSSSNMAPFCVLSPVKSPHLRKASAVIHDQHKLSTEETEISPPLVKCGSAYEPENQSKDFLNKTFSDPHGRKVEKTTPDCQLRAFHLQSSAAESKPEEQVSGLNRTSSQGPEERSEYLKKVKSILNIVKEGQISLLPHLAADNLDKIHDENGNNLLHIAASQGHAECLQHLTSLMGEDCLNERNTEKLTPAGLAIKNGQLECVRWMVSETEAIAELSCSKDFPSLIHYAGCYGQEKILLWLLQFMQEQGISLDEVDQDGNSAVHVASQHGYLGCIQTLVEYGANVTMQNHAGEKPSQSAERQGHTLCSRYLVVVETCMSLASQVVKLTKQLKEQTVERVTLQNQLQQFLEAQKSEGKSLPSSPSSPSSPASRKSQWKSPDADDDSVAKSKPGVQEGIQVLGSLSASSRARPKAKDEDSDKILRQLLGKEISENVCTQEKLSLEFQDAQASSRNSKKIPLEKRELKLARLRQLMQRSLSESDTDSNNSEDPKTTPVRKADRPRPQPIVESVESMDSAESLHLMIKKHTLASGGRRFPFSIKASKSLDGHSPSPTSESSEPDLESQYPGSGSIPPNQPSGDPQQPSPDSTAAQKVATSPKSALKSPSSKRRTSQNLKLRVTFEEPVVQMEQPSLELNGEKDKDKGRTLQRTSTSNESGDQLKRPFGAFRSIMETLSGNQNNNNNYQAANQLKTSTLPLTSLGRKTDAKGNPASSASKGKNKAA

Variants of: B1
Conditions: with syua_human SNCA

Variant	effect of a mutation on the interaction
K527A	decreasing interaction
A519N	decreasing interaction
V523N	decreasing interaction
K524A	decreasing interaction
